Measured values taken from PMC3430215.

Molecular target: Dunaliella salina Hsp90 (DsHsp90) (Dunaliella salina)
Test: SEC; Superdex G200 10/30 column on an AKTA system; 40 mM HEPES, 25 mM KCl, pH 7.5; apparent molecular weight from a standard curve of markers; single peak

Substance: Dunaliella salina Hsp90 (DsHsp90) (natural protein)
- stoichiometry N: 2
